The source of these data is paper PMC9860152.

For data set [1], the target named is T1, REST-N62 (REST4-S3) (human, UniProt A0A087X1C2 1-340).
T1 sequence: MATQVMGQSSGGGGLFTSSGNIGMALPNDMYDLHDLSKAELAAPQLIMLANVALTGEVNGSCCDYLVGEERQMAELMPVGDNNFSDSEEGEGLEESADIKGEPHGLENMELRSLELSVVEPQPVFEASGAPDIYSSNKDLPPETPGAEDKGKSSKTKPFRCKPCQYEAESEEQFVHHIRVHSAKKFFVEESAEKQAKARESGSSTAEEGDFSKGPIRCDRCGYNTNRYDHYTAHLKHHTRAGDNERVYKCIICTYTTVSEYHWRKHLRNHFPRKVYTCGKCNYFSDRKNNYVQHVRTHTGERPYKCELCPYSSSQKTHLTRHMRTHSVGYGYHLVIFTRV
As to the kind of experiment: fluorescence anisotropy. For orientation: In fluorescence polarisation assays a small probe gives low polarisation when free and higher when bound to something large.

Data set [2] addresses T2, REST-FL (human, UniProt Q13127 1-1097).
T2 sequence: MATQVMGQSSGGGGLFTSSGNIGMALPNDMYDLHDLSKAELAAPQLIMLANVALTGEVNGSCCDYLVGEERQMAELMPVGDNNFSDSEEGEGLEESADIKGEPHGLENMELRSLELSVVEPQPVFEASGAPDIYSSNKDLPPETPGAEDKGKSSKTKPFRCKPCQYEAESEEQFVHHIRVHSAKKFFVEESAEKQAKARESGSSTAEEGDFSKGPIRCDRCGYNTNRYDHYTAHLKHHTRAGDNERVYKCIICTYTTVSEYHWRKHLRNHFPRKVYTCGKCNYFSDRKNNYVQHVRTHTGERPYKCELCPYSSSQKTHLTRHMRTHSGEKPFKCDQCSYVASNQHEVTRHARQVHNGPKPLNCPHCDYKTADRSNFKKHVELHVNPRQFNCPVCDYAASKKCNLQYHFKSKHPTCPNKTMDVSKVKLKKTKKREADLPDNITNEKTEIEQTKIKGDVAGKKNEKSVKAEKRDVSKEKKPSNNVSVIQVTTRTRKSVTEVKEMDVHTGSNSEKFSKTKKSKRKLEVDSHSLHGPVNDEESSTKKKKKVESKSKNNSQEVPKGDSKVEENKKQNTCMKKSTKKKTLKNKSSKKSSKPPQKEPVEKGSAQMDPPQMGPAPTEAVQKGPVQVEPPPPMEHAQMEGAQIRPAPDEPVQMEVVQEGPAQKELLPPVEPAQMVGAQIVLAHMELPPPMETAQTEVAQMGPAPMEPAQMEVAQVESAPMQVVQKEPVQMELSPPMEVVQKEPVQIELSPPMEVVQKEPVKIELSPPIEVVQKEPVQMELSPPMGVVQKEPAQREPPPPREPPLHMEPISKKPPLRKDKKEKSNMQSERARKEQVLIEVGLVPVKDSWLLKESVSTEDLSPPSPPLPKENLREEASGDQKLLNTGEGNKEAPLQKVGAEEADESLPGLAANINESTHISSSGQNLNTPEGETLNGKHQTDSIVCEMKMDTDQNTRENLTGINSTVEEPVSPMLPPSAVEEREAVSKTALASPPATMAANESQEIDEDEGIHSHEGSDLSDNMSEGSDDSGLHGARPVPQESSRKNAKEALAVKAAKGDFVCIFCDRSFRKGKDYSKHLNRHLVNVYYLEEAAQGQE
As to the kind of experiment: fluorescence anisotropy.

B1: NRSE (RE1) 21 bp duplex (dsDNA)
DNA 1: TTCAGCACCATGGACAGCGCC
DNA 2: GGCGCTGTCCATGGTGCTGAA
For B1, the binding result in data set [1] is “no binding”. Moreover, binding in data set [2] was characterised by a dissociation constant (Kd) of 5.7 ± 0.6 nM.
